B1: C53F12 (antibody, V domains shown)
VH: QVQLVQSGAEVKKPGSSVKVSCKASGGTFSSYAISWVRQAPGQGLEWMGGIIPIFGTANYAQKFQGRVTITADESTSTAYMELSSLRSEDTAVYYCARMYYYVSGSYHYFDYWGQGTLVTVSS
VL: EIVLTQSPATLSLSPGERATLSCRASQSVSSYLAWYQQKPGQAPRLLIYDASNRATGIPARFSGSGSGTDFTLTISSLEPEDFAVYYCQQRSNWPPALTFGGGTKVEIK
B2: C102B1 (antibody, V domains shown)
VH: QVQLVQSGAEVKKPGSSVKVSCKASGGTFSSYAISWVRQAPGQGLEWMGGIIPIFGTANYAQKFQGRVTITADESTSTAYMELSSLRSEDTAVYCCARDRGYCTGGVCSNYYYGIDVWGQGTTVTVSS
VL: EIVLTQSPATLSLSPGERATLSCRASQSVSSYLAWYQQKPGQAPRLLIYDASNRATGIPARFSGSGSGTDFTLTISSLEPEDFAVYYCQQRSNWPPSYTFGQGTKLEIK
B3: C12E6 (antibody, V domains shown)
VH: QVQLQESGSGLVKPSQTLSLTCAVSGGSISSGGYSWSWIRQPPGKGLEWIGYIYHSGSTYYNPSLKSRVTISVDRSKNQFSLKLSSVTAADTAVYYCARSGFLEWLRRVDAFDIWGQGTMVTVSS
VL: QSALTQPASVSGSPGQSITISCTGTSSDVGGYNYVSWYQQHPGKAPKLMIYDVSNRPSGVSNRFSASKSGNTASLTISGLQAEDEADYYCSSYTSSSTRVFGGGTKLTVL
B4: C12B8 (antibody, V domains shown)
VH: QVQLVESGGGVVQPGRSLGLSCAASGFTFSSYAMHWVRQAPGKGLEWVAVISYDGSNKADSVKGRFTISRDNSNNTLYLQMNSLRAEDTAVYYCAREGVVVTAPLDYWGQGTLVTVSS
VL: not shown
B5: C163D5 (antibody, V domains shown)
VH: EVQLVESGGGLVQPGGSLRLSCAASGFTFSSYWMHWVRQAPGKGLVWVSRTNSDGSSTNYADSVKGRFTISRDNAKNTLYLQMNSLRAEDTAVYYCARPQFYVWGSDRADYGMDVWGQGTTVTVSS
VL: QSALTQPASVSGSPGQSITISCTGTSSDVGGYNSVSWYQQHPGKAPKLMIYEVSNRPSGVSNRFSGSKSGNTASLTISGLQAEDEADYYCSSYRSSSTLVFGGGTKLTVL
B6: C7I5 (antibody, V domains shown)
VH: EVQLLESGGGLVQPGGSLRLSCAASGFIFSNYVVSWVRQAPGKGLEWVSGISVNGDTTFYADSVKGRFTISRDNSKNTLYLQMNSLRAEDTAVYYCAKVRGYCSGGRGCMDVWGQGTTVTVSS
VL: DIQLTQSPSSLSPSVGDRVTITCRASQDIGNTLAWYQQKPGKAPNLLIYDASSLQSGVPSRFSGTVSGTDFTLTITSLQPEDFATYFCQQFNTYPALTFGGGTKVEIK
B7: C30A8 (antibody, V domains shown)
VH: QVQLVESGGGLVKPGGSLRLSCAASGFTFSDSYMSWIRQAPGKGLEWVSYISSSSSYTNYADSVKGRFTISRDNAKNSLYLQMNSLRAEDTAVYYCARDRVPPYSSGWYYFDYWGQGTLVTVSS
VL: QSALTQPASVSGSPGQSITISCTGTSSDVGGYNYVSWYQQHPGKAPKLMIYEVSNRPSGVSNRFSGSKSDNTASLTISGLQAEDEADYYCSSYTSSSTYVFGTGTKVTVL
B8: G32C5 (antibody, V domains shown)
VH: QVQLVESGGGVVQPGRSLRLSCAASGFTFSSYAMHWVRQAPGKGLEWVAVISYDGSNKYYADSVKGRFTISRDNSKNTLYLQMNSLRAEDTAVYYCARGKSGSYFGSFDYWGQGTLVTVSS
VL: not shown
B9: C882C6 (antibody, V domains shown)
VH: QVQLVESGGGVVQPGRSLRLSCAASGFTFSNFAIHWVRQAPGKGLEWVAVVSYDGGNKYYADSVKGRFTISRDNSKNTLYLQMNSLRAEDTSVYYCARSGSGNYYGWFDPWGQGTLVTVSS
VL: QSALTQPASVSGSPGQSITISCTGTSSDVGSYNLVSWYQQHPGKAPKLMIYEGSKRPSGVSNRFSGSKSGNTASLTISGLQAEDEADYYCCSYAGSSTWVFGGGTKLTVL
B10: C102A5 (antibody, V domains shown)
VH: QVQLVESGGGVVQPGRSLRLSCAASGFTFSTYAMHWVRQAPGKGLEWVAVISYDGSNKYYADSVKGRFTISRDNSKNTLYLQMNSLRAEDTAVYYCARDLGTYRWFDPWGQGTLVTVSS
VL: DIQMTQSPSSVSASVGDRVTITCRASQGISSWLAWYQQKPGKAPKLLIYAASSLQSGVPSRFSGSGSGTDFTLTISSLQSEDFATYYCQQANSFPSFTFGPGTKVEIK
B11: C81E9 (antibody, V domains shown)
VH: QVQLVESGGGVVQPGRSLRLSCAASGFTFSSYAMHWVRQAPGKGLEWVAVISYDGSNKYYADSVKGRFTISRDNSKNTLFLQMNSLRPEDTAVYYCIAARNYYYMDVWGKGTTVTVSS
VL: not shown
B12: C81H4 (antibody, V domains shown)
VH: QVQLVESGGGVVQPGRSLRLSCAASGFTFSSYGMHWVRQAPGKGLEWVAVISYDGSNKYYADSVKGRFTISRDNSKNTLCLQMNSLRAEDTAVYYCAKGRGGSYYDAFDIWGQGTMVTVSS
VL: not shown
B13: C83B10 (antibody, V domains shown)
VH: QVQLVESGGGVVQPGRSLRLSCAASGFTFSIYAIHWVRQAPGKGLEWVALISYDGSNKYYADSVKGRFTISRDNSKNTLYLQMNSLRAEDTAVYYCARARGGSYSDAFDIWGQGTMVTVSS
VL: not shown
B14: C93E12 (antibody, V domains shown)
VH: QVQLVEAGGGVVQPGTSLRLSCAASGFTFSNYAIQWVRQAPGKGPEWVALISYDGSNKYYADPVKGRFTLSRDNSKNTLYLQMNSLRAEDTAVYYCARGIRGGYNDAFDIWGQGTMVTVSS
VL: DIQLTQSPSFLSASVGDRVTITCRASQGISSYLTWYQQKPGKAPKLLIYAASTLQSGVPSRFSGSGSGTEFTLTISSLQPEDFATYYCQQVTSYPITFGQGTRLEIK
B15: G32M2 (antibody, V domains shown)
VH: QVQLVESGGGVVQPGRSLRLSCAASGFTFSSYAMHWVRQAPGKGLEWVAVISYDGNNKYYADSVKGRFTISRDNSKNTLYLQMNSLRAEDTAMYYCARAKGGGYYYGMDVWGQGTTVTVSS
VL: SYELTQPPSVSVAPGQTARITCGGNNIGSKSVHWYQQKPGQAPVLVVYDDSDRPSGIPERFSGSNSGNTATLTISRVEAGDEADYYCQVWDSSSDPYWVFSGGTKLTVL
B16: G32L8 (antibody, V domains shown)
VH: EVQLVQSGAEVKKPGESLKISCKGSGYSFTSYWIGWVRQMPGKGLEWMGIIYPGDSDTRYSPSFQGQVTISADKSISTAYLQWSSLKASDTAMYYCARRYAVYSSGWYYWYFDLWGRGTLVTVSS
VL: not shown
B17: C12I7 (antibody, V domains shown)
VH: QVQLQESDPGLVQPSETLSLTCTVSRGSISSYYWSWIRQPPGKGLEWIGYIYYSGSTNYNPSLKSRVTISVDTSKNQFSLKLSSVTAADTAVYYCARVGYYDSSAYLKLGSIDYWGQGILVTVSS
VL: not shown
B18: C81C3 (antibody, V domains shown)
VH: EVQLVQSGAEVKKPGESLRISCKGSGYSFTSYWISWVRQMPGKGLEWMGRIDPSDSYTNYSPSFQGHVTISADKSISTAYLQWSSLKASDTAMYYCAIHGYYDSSGYYLPHGFDIWGQGTMVTVSS
VL: SYELTQPPSVSVAPGKTARITCGGNNIGSTSVHWYQQKPGQAPVLVVYDDGDRPSGIPERFSGSNSGNTATLTISRVEAGDEADYYCQVWDSSSDPNWVFGGGTKLTVL
B19: G32B2 (antibody, V domains shown)
VH: QLQLQESGPGLVKPSETLSLTCTVSGGSISSSSYYWGWIRQPPGKGLEWIGSIYYSGSTYYNPSLKSRVTISVDTSKNQFSLKLSSVTAADTAVYYCARTVASYYDSSAYLTLGYFDYWGQGTLVTVSS
VL: SYELTQPPSVSVSPGQTARITCSGDALPKKYAYWYQQKSGQAPVLVIYEDSKRPSGIPERFSGSSSGTMATLTISGAQVEDEADYYCYSTDSSGNHNYVFGTGTKVTVL
B20: C30B10 (antibody, V domains shown)
VH: QVQLVESGGGVVQPGRSLRLSCAASGFTFSSYGMHWVRQAPGKGLEWVAVIWYDGSNKYYADSVKGRFTISRDNSKNTLYLQMNSLRAEDTAVYYCARDYPFSGSYYGDAFDIWGQGTMVTVSS
VL: SYELTQPPSVSVSPGQTARITCSGDALPKKYAYWYQQKSGQAPVLVIYEDSKRPSGIPERFSGSSSGTMATLTISGAQVEDEADYYCYSTDSSGNRWVFGGGTKLTVL
B21: C12B5 (antibody, V domains shown)
VH: QVQLVESGGGVVQPGRSLRLSCAASGFTFSSYGMHWVRQAPGKGLEWVAVIWYDGSNKYYADSVKGRFTISRDNSKNTLYLQMNSLRAEDTAVYYCARDLAVATQNDYWGQGTLVTVSS
VL: SYELTQPPSVSVSPGQTARITCSGDALPKKYAYWYQQKSGQAPVLVIYEDGKRPSGIPERFSGSSSGTMATLTISGAQVEDEADYYCYSTDSSGNRWVFGGGTKLTVL
B22: G32B4 (antibody, V domains shown)
VH: not shown
VL: SYELTQPPSVSVSPGQTARITCSGDALPKKYAYWYQQKSGQAPVLVIYEDSKRPSGIPERFSGSSSGTMATLTISGAQVEDEADYYCYSTDSSGNLWVFGGGTKLTVL
B23: G32M1 (antibody, V domains shown)
VH: QVQLVESGGGVVQPGRSLRLSCVASGFTFSSYGMHWVRQAPGKGLEWVAVIWYDGSNKYYADSVKGRFTISRDNSKNTLYLQMNSLRAEDTAVYYCAREYRSSWYNWFDSWGQGTLVTVSS
VL: SYELTQPPSVSVSPGQTARITCSGDALPKQYAYWYQQKPGQAPVMVIYKDSERPSGIPERFSGSSSGTTVTLTISGVQAEDEADYYCQSADSSGTSYVFGTGTKVTVL
B24: C81E12 (antibody, V domains shown)
VH: QVQLVESGGGVVQPGRSLRLSCAASGFTFSSYGMHWVRQAPGKGLEWVAVIWYDGSNKYYADSVKGRFTISRDNSKNTLYLQMNSLRAEDTAVYYCARDLRLGDHFDYWGQGTLVTVSS
VL: SYELTQPPSVSVSPGQTARITCSGDALPKKYAYWYQQKSGQAPVLVIYEDSKRPSGIPERFSGSSSGTMATLTISGAQVEDEADYYCYSTDSSGNHRVFGGGTKLTVL

These binders were tested against SARS-CoV-2 S ectodomain trimer, prefusion-stabilized, 2P variant (Wrapp et al., 2020) (SARS-CoV-2, Wuhan-Hu-1, UniProt P0DTC2, stabilised).

Does B1 bind?
Result: binds

Does B2 bind?
Result: binds

Does B3 bind?
Result: binds

Does B4 bind?
Result: binds

Does B5 bind?
Result: binds

Does B6 bind?
Result: binds

Does B7 bind?
Result: binds

Does B8 bind?
Result: binds

Does B9 bind?
Result: binds

Does B10 bind?
Result: binds

Does B11 bind?
Result: binds

Does B12 bind?
Result: binds

Does B13 bind?
Result: binds

Does B14 bind?
Result: binds

Does B15 bind?
Result: binds

Does B16 bind?
Result: binds

Does B17 bind?
Result: binds

Does B18 bind?
Result: binds

Does B19 bind?
Result: binds

Does B20 bind?
Result: binds

Does B21 bind?
Result: binds

Does B22 bind?
Result: binds

Does B23 bind?
Result: binds

Does B24 bind?
Result: binds
